US20120316071A1 (published 2012)
One block for each binder: values may come before it.

Assays:
[1] = molecular target: T1, rHuman HGF R/c-MET/Fc Chimera, CF (R&D Systems Cat#358-MT/CF) (human, UniProt P08581 25-932); assay: ECL Multispot (MSD), antigen spotted; Fab 5 (µM); blank 211
T1 construct: Bought recombinant protein; also called HGF R/Fc; Fc part of the bought chimera not given

[2] = molecular target: T2, rHuman P-Cadherin/Fc Chimera, CF (R&D Systems Cat#861-PC) (human, UniProt P22223 108-654); assay: as above
T2 construct: Bought recombinant protein; Fc part of the bought chimera not given

[3] = molecular target: T3, rHuman IGF-1 sR, CF (R&D Systems Cat#391-GR) (human, UniProt P08069 31-932); assay: as above
T3 construct: Bought recombinant soluble receptor; also called insulin-like growth factor-1 soluble receptor

[4] = molecular target: T4, rHuman Notch-1/Fc Chimera, CF (R&D Systems Cat#3647-TK) (human, UniProt P46531 19-526); assay: as above
T4 construct: Bought recombinant protein; Fc part of the bought chimera not given

[5] = molecular target: T5, rHuman Erythropoietin R/Fc Chimera, CF (R&D Systems Cat#963-ER) (human, UniProt P19235 25-250); assay: as above
T5 construct: Bought recombinant protein; also called EPO R; EPO R/Fc; Fc part of the bought chimera not given
T5 sequence (looked up): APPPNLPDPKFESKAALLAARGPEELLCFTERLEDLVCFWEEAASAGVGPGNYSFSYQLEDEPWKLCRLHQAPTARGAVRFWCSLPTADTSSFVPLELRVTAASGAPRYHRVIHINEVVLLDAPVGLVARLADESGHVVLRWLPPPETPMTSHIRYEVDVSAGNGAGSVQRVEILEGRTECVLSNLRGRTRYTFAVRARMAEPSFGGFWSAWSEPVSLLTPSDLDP

[6] = molecular target: T6, rHuman Notch-1/Fc Chimera, CF (R&D Systems Cat#3647-TK) (human, UniProt P46531 19-526); assay: MSD Multispot ECL, antigen spotted on plate, Fab at 7.5 nM; blank spot 217
T6 construct: Bought Fc chimera; Fc part of the bought chimera not given

[7] = molecular target: T7, rHuman P-Cadherin/Fc Chimera, CF (R&D Systems Cat#861-PC) (human, UniProt P22223 108-654); assay: as above
T7 construct: Bought Fc chimera; Fc part of the bought chimera not given

[8] = molecular target: T8, rHuman CD44/Fc Chimera, CF (R&D Systems Cat#3660-CD) (human, UniProt P16070 21-220); assay: as above
T8 construct: Bought Fc chimera; Fc part of the bought chimera not given

[9] = molecular target: T9, Recombinant Human DLL4 (R&D Systems Cat#1506-D4/CF) (human, UniProt Q9NR61 27-524); assay: as above
T9 construct: Bought recombinant protein; also called rHuman DLL4; delta-like protein 4

[10] = molecular target: T10, rHuman Erythropoietin R/Fc Chimera, CF (R&D Systems Cat#963-ER) (human, UniProt P19235 25-250); assay: as above
T10 construct: Bought Fc chimera; also called EPO R/Fc; Epo R; Fc part of the bought chimera not given
T10 sequence (looked up): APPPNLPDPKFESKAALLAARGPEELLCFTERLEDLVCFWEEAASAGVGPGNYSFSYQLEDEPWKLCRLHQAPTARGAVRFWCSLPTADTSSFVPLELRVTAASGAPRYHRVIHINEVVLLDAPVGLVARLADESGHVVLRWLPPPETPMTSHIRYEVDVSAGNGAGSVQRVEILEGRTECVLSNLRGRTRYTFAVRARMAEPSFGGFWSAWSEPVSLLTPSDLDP

[11] = molecular target: T6, rHuman Notch-1/Fc Chimera, CF (R&D …); assay: MSD Multispot ECL, antigen spotted on plate, Fab at 3.8 nM; blank spot 198
[12] = molecular target: T7, rHuman P-Cadherin/Fc Chimera, CF (R&D …); assay: as above
[13] = molecular target: T8, rHuman CD44/Fc Chimera, CF (R&D Systems …); assay: as above
[14] = molecular target: T9, Recombinant Human DLL4 (R&D Systems …); assay: as above
[15] = molecular target: T10, rHuman Erythropoietin R/Fc Chimera, CF …; assay: as above
[16] = molecular target: T11, Recombinant Human DLL4 (R&D Systems Cat#1506-D4/CF) (human, UniProt Q9NR61 27-529); assay: MSD Multispot ECL, antigen spotted on plate, Fab 2.0 nM; blank spot 316
T11 construct: Bought recombinant protein; also called rHuman DLL4; delta-like protein 4

[17] = molecular target: T12, rHuman EGF R/Fc Chimera, CF (R&D Systems Cat#344-ER) (human, UniProt P00533 25-645); assay: as above
T12 construct: Bought reagent; also called epidermal growth factor receptor; Fc part of the bought chimera not given

[18] = molecular target: T13, rHuman ErbB2/Fc Chimera, CF (R&D Systems Cat#1129-ER) (human, UniProt P04626 23-652); assay: as above
T13 construct: Bought reagent; also called human epidermal growth factor 2 receptor; Fc part of the bought chimera not given

[19] = molecular target: T14, rHuman CD44/Fc Chimera, CF (R&D Systems Cat#3660-CD) (human, UniProt P16070 21-220); assay: as above
T14 construct: Bought reagent; Fc part of the bought chimera not given

T1 sequence (P08581 25-932, change not shown): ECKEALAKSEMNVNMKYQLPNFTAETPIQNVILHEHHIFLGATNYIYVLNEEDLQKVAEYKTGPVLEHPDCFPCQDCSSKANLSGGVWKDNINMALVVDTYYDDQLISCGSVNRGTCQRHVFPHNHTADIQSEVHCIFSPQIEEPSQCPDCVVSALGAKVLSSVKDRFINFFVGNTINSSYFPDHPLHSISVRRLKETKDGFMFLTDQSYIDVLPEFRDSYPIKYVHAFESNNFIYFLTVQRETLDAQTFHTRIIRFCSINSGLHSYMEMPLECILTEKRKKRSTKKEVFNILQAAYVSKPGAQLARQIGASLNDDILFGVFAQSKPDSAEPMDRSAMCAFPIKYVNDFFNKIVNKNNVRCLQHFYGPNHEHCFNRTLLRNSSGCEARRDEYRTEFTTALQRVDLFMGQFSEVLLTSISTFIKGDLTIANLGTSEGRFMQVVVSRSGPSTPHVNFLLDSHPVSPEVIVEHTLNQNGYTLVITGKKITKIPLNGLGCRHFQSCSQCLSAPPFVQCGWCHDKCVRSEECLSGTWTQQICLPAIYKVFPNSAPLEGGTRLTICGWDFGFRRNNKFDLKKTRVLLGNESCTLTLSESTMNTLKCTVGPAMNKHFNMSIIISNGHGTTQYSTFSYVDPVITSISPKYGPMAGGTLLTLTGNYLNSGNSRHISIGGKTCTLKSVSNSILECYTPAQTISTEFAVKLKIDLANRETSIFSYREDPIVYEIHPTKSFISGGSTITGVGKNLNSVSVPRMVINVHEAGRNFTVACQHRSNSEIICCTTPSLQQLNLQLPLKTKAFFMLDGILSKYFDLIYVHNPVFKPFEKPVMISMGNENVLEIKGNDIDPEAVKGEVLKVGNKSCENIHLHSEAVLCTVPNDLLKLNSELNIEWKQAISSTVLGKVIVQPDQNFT

ECL signal [1]: 309 | ECL signal [2]: 547 | ECL signal [3]: 300 | ECL signal [4]: 338 | ECL signal [5]: 423
B1: Fab VH1-46_IGHD6-6*01_IGHJ1*01 S102A/S103P/S104F (APF) & L6_IGKJ1*01 (Fab, V domains shown)
VH: QVQLVQSGAEVKKPGASVKVSCKASGYTFTSYYMHWVRQAPGQGLEWMGIINPSGGSTSYAQKFQGRVTMTRDTSTSTVYMELSSLRSEDTAVYYCAREEYAPFSAEYFQHWGQGTLVTVSS
VL: not shown
notes: Tested as a Fab made in E. coli: VH cloned in Plasmid A (CH1 constant region, His6 and Flag tags), VL in Plasmid C (kappa constant region); also called H:APF & L:wt; APF triple mutant

ECL signal [6]: 392 | ECL signal [7]: 352 | ECL signal [8]: 444 | ECL signal [9]: 598 | ECL signal [10]: 443 | ECL signal [11]: 383 | ECL signal [12]: 281 | ECL signal [13]: 419 | ECL signal [14]: 462 | ECL signal [15]: 407
B2: Fab VH6-1_IGHD3-3*01_IGHJ4*01 & V4-3_IGLJ4*01 (Fab, V domains shown)
VH: QVQLQQSGPGLVKPSQTLSLTCAISGDSVSSNSAAWNWIRQSPSRGLEWLGRTYYRSKWYNDYAVSVKSRITINPDTSKNQFSLQLNSVTPEDTAVYYCAREYYDFWSGYYTDYFDYWGQGTLVTVSS
VL: QPVLTQPTSLSASPGASARLTCTLRSGINLGSYRIFWYQQKPESPPRYLLSYYSDSSKHQGSGVPSRFSGSKDASSNAGILVISGLQSEDEADYYCMIWHSSASFVFGGGTQLIIL
notes: Tested as a purified germline Fab made in E. coli; The VH was cloned into plasmid A (CH1 constant region, His6 and Flag tags) and the lambda VL into plasmid E (lambda CL)

ECL signal [16]: 605 | ECL signal [17]: 424 | ECL signal [18]: 382 | ECL signal [19]: 447
B3: Fab VH1-8_IGHD2-2*01_IGHJ6*01 & L12_IGKJ1*01 (Fab, V domains shown)
VH: QVQLVQSGAEVKKPGASVKVSCKASGYTFTSYDINWVRQATGQGLEWMGWMNPNSGNTGYAQKFQGRVTMTRNTSISTAYMELSSLRSEDTAVYYCARGGYCSSTSCYADYYYYYGMDVWGQGTTVTVSS
VL: not shown
